We go through one molecule from patent US20260348977 (published 2026).

Experiment [1] deals with T1, truncated peptide (human).
T1 chain: LNPDTGLWE
Description: competition (chemiluminescence ELISA).

The target in experiment [2] is T2, elongated peptide (human).
T2 chain: WSLNPDTGLWE
Briefly: competition (chemiluminescence ELISA).

Experiment [3] deals with T3, non-sense peptide.
T3 chain: DSGPEYADVV
Briefly: competition (chemiluminescence ELISA).

In experiment [4] the target is T4, standard/selection peptide SLNPDTGLWE (CILP-M) (human).
T4 chain: SLNPDTGLWE
Briefly: competition (chemiluminescence ELISA, 20C, pH 7.4).

B1: NB326 #76 13B5-1C6-2C4 (antibody, V domains shown)
VH: QVQLQQSGPELVKPGASVRISCKASGYTFTNYYIHWVKQRPGQGLEWIGWISPGIVDTEYNEKFKNKATLTADKSSRTAYMQLSSLTSEDSAVYFCARRSAGSYGDFDYWGQGTTLTVSS
VL: DIVMTQSQKFMSTSVGDRVSVTCKASQNVGTDVVWYQQRPGQSPKALMYSASYRYSGVPDRFTGSGSGTDFTLTISNVQSEDLAEYFCQHYDNYPLTFGAGTKLELK
Regarding B1, the binding result in experiment [1], in experiment [2] and in experiment [3] was “no binding” each time. Besides, the concentration for half-maximal inhibition (IC50) in experiment [4] is 2 ng/mL.
